# Experiment: yeast display, Sf9 membrane polyspecificity reagent, FACS + sequencing; frameworks hold sequencing errors
# In short: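 Nanobodies came from a synthetic yeast display library in Saccharomyces cerevisiae BJ5465, induced with galactose for 36–48 hours and stained for 1 hour at 4 °C with 10% biotinylated, detergent-solubilized Sf9 membrane reagent. Cells were enriched on streptavidin microbeads and then FACS-sorted, with low and high (top ~1%) gates set on anti-HA fluorescence for expression and streptavidin fluorescence for reagent binding. Each polyreactivity label reflects the gate a clone came from. Genes were amplified by colony PCR, sequenced by MiSeq 2 × 250 and filtered by CDR length.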
row,Sequence,polyreactivity (PSR sort gate)
1,QVQLVESGGGLVQAGGSLRLSCAASGSTFSTYAMGWYRQAPGKERELVAAIRWSGGSTYYADSVKGRFTISRDNAKNTVYLQMNSLKPEDTAVYYCATDAPDRTDSDSGFDAGYDYWGQGTQVTLSS,low polyreactivity
2,QVQLVESGGGLVQAGGSLRLSCAASGLIFPSYVMGWYRLAPGKERELVAGITIGDRTYYADSVKGRFTISRDNAKNTVYLQMNSLKPEDTAVYYCAAVYTYAGRRFGYWGQGTQVTVSS,high polyreactivity
3,QVQLVESRGGLVQAGRSLRLSCAASGRTFHRNTLGRYRQAPGKERELVAAITGDGRTNYADSVKGRFTISRDNAKNTVYLLMNSLKPEDTAGYYCAAQYYYSEAGRDYWGQGTQVTVSS,low polyreactivity
4,QDQLVESGGGLVQAGGRLRLSSAASVSTFLPNTLGWYSQAHGKERELVADISWSGGSTYYADSVKGRLTISRDNAKNTVYLQMNRLKPEDTADSYCAADIASGYYWYDYWGQGTQVTVTS,low polyreactivity
5,QVQLVESGGGLVQAGGSLRLSCAASRIIFWFYAMGWYRQAPGKERELVAAISGDGDSTYYADSVKGRFTISRDNAKNTVYLQMNSLIPEDTAVYYCAAEWDPVFATDEDDYWGQGTQVTVSS,low polyreactivity
6,QVQLVESVGGLVQAGGSLRLSCAASGIIFVYYVMGWYRQAPGKERELVASIDGSGGSTNYADSVKGRFTISRDNAKNTVYLQMNSLKPEDTAVYYCNADNILYWSTLDYWGQGTQVTVSS,low polyreactivity
7,QVQLVESGGGLVQAGGSLRLSCAASGSIFGYYAMGWYRQAPGTERELVAAITTGGSTSYADSVKGRFTISRDNAKNTVYLQMNSLKPEDTAVYYCAARPHHGWLEYGSAGLGYWGQGTQVTVSS,low polyreactivity
8,QVQLVESGGGLVQAGGSLRLSCAASGSTFSFNAMGWYRQAPGKERELVAAITGGDGTNYADSVKGRFTISRDNAKNTVYLQMNILKPEDTAVYYCAAYQWGSTEDYWFTYGYWGQGTQVTVSS,low polyreactivity
9,QVQLVESAGGLVQAGGSLSLSCAATGFIFYYNTMGWYRQAPGKERELVAAINSGGSTYYADSVKGRFTISRDNAKNTVYLQMNSLKPEDTAVYYCAKRYAVSSRYYYWGQGTQVTVSS,high polyreactivity
10,QVQLVQSGGGLVQAGGSLSLSCAASGSTFARNTMGWYRQAPGKERELVAAISYSGVTTYYADSVKGRFPISRDNEKNTVYLQMNSLKPEDTAVYYCAKLPYRRVDYGYWGQGTQVTVSS,high polyreactivity
11,QVQLVESGGGLVQAGGSLRLRCAASGRIFPLYAMGWYRQAPGKERELVATISYSGSSTYYADSVKGRFTISRDYAKNSVYLQMNSLKPEDTAVFYFNADAFGPPGVEYYYRGQGTQVTVSS,low polyreactivity
12,QVQLVESGGRVVQAGGILRLRCAGSGSILVHYAMGWYRQAPGKDRELVAAISRGGSTNYADSVKGRFTISRDNAKNTVYLQMNSLKPEDTAVYYCDARRPWGEYYWGQGTQVTVSS,low polyreactivity
13,QVQLVESGGGLVQAGGSLRLSCAASGSTSRQYAMGWYRQAPGKERELVAAITWSGASTNYADSVKGRFTISRDNAKNTVYLQMNSLKREDTAVYYCAAYRWVYPDVIYDYWGQGTQVTVSS,high polyreactivity
14,QVQLVESGGGLVQAGGSHRLSCAASGSIFSWYAMGWYRQAPGKVRELVAAITWTRGSTYYADSVKGRFTISRDTANNTVYLQMKSLKPDDSAVYYCAARRVVYRYYWYSAYVYWGQGTQVTVSS,high polyreactivity
15,QVQLVESGGGLVQAGGSLRLSCAASGFTFARYTMGWYRQAPGKERELVAAISSRGSSTYYADSVKGRFTISRDNAKNTVYLQMNSLKRVDTAVYYCAAPPRYGYDYWGHGTQVTVSS,high polyreactivity
16,QVQLVESGGGLVQAGGSLRLSCAASGRTFNRYAMGWYRQAPGKERELVAAITRGGSTYYADSVKGRFTISRDNAQNTVYLQMNSLKPEDTAVYYCAKYVYSEGYYWGQGTQVTVSS,high polyreactivity
17,QVQLVESGGGLVQAGGSLRLSCAASGSTIRFNAMGWYRQAPRKERELVAAISWRGGTTYADSVKGRFTISRDNAKNTVFLQMTSLKPEDTAVYYCAAGLYAQGKRYGYWGHGTQVTVSS,high polyreactivity
18,QVQLVESGGGLVQAGGSLRLSCAASGSIFKRNDMGWYRQAPGKERELVAAITWSGGSTYYADSVKGRFTISRDNAKNTVYLQMNSLKPEDTAVYYCNAARDDWYIIKYDYWGQGTQVTVSS,low polyreactivity
19,QVQLVESGGGLVQAGGSLRLSCAASGFTLFWNDMGWYRQAPGKERELVAAITSGDDTYADSVKGRFTISRDNAKNTVYLQMNSLKPEDTAVYYCNKDDPLRNVAQVILYEFYYWGQGTQVTVSS,low polyreactivity
20,QVQLVESGGGLVQAGGSLRLSCAASGIYAYVMGWYRQAPGTERELVAAISGTGGRTYYADSVKGRFTISRDNAKNTVYLQMNSLKPEDTAVYYCAARVKYTRYQSILDYYYWGQGTQVTVSS,high polyreactivity

row,Sequence,polyreactivity (PSR sort gate)
1,QVQLVESGGGLVQAGGSLRLSCAASGSIFTYYAMGWYRQAPGKERELVAAISASGGSTYYADSVKGRFTISRDNAKNTVYLQMNSLKPEDTAVYYCAADYRRSGGGNLPYDNDYWGQVTQVTVSS,high polyreactivity
2,QVQLVESGGGLVQAGGSLRLSSAASGSIFSYNVMGWYRQAPGKERELVAAISWNDGSTYYADSVKGRFTISRDNAKNTVYLQMNSLKPEDTAVYYCAAEYGRRWHNELDYWGQGTQVTVSS,low polyreactivity
3,QVQLVESGRGLVQAGGSLRLSCAASGRIFDHYAMGWYRQAPGKERELVAAITWSGANTYYADSVKGRFTISRDNAKNTVYLQMNSLKPEDTAVYYCAAYNGAHSHFGYWGQGTQVTVSS,low polyreactivity
4,QVQHVASGGGIDQAGGSLRLSCAASGFIFSWYALGWYRQAPGKERELVAGISIRGGRTYADSVKGRFTISRDNAKNTVYLQMNSLTPEDTAVYSCATRSYRPYHSLYDYWGQGTQVTVSS,high polyreactivity
5,QVQLVESGGGLVQAGGSLRLSCAASGSIIGIYDMGWYRQAPGKERELVAAISWSGGSTYYADSVKGRFTISRDNAKNTVYLQMNSLKPEDTAFYYCAARGHYQYYWGQGTQVTVSS,low polyreactivity
6,QVQLVESGGGLVQAGCSLRLSCAASGRTFGSYAMGWYRQAPGKERDLVAGITWRDGSTYYADSVKGRFTISRDNAKNTVYFQMNSLKPEDTAVYYCDKEAVRYYLFGMEYWGQGNQVTVSS,low polyreactivity
7,QVQLVESGGGLVQAGGSLRLSCADSGRIICWYAMGWYRQAPGKERELVAAISTGSRTYYADSVKGRFTISRDNAKTTVYLQMNSLKPEDTAVYYCAASLYSGYVSWGQGTQVTVSS,low polyreactivity
8,QVQLVESGGGLVQAGGSLRLSCAASGSIFYFNGLGWSRQSPGKEREFVAAITWGDGSTYYADSVKGRFTISRDNAKNTVYLQMNSLKPADTAVYYCAAVLLIFKYVPRYDYWGQGSQVTVSS,low polyreactivity
9,QVQLVESGGGLVQAGGSLRLSSAASGSTFNLYAMGWYRQAPGKERELVAAISRRGGSTYYADSVKGRFTISRDNAKNTVYLQMNSLKPEDTAVYYCAAVVVTGQGDKYDYWGQGTQVTVSS,high polyreactivity
10,QVQLVESGGGLDQAGGSLRLSCAASGSIFYPYAMGWYRQAPGKERELVASNSSGGSTYYADSVKGRFTISRDNAKNTVYLQMNSLKPEDTAVYYCARQDYKRFYRYRFGNLYDSWGQGTQVTVSS,high polyreactivity
11,QVQLEESGGGLVQAGGSLRLSCAASGRTFGWNVMGWYRQAPGKERELVAAISGGGTSTYYADSVKGRFTISRDNAKNTVYLQMNSLNPEDTAVYYCNAYYPGSYYPRSGRYDYWGQGTQVTVSS,high polyreactivity
12,QVQLVESGGGLVQAGGSLRLSCAASGSSFISNTMGWYRQAPGKERELVAAISSGGDTSYADSVKGRFTISRDNAKNTVYLQMNILKPEDTAVYYCNVDTSATSYSSEYDYWGQGTQVTVSS,low polyreactivity
13,QVQLEDSGGGLVQAGVSLRLSSDASGSTIAGYVMGWYRQAPGKERELVAAISRSGGSTYYADSVKGRFTISRDNEKNTVYLQMNSLKPEDTAVYYCASRNSPGFPGDYWGQGSQVTVSS,high polyreactivity
14,QVQLVESGGGLFQAGRSLRLSCAASGITFGYYGMGWYRQAPVKERELVATISQRGGSTYYAVSVKGRFTISRDNAKNTVYLQMNSLKPEDTAFYYSNADAYRYYDYDLLFHYDYWGQGTQVTVSS,low polyreactivity
15,QVQLVESGGGLVQAGCSLRLRSAASGSIFSGYAMGWYRQAPWKERELDAVISSTGDSTYYADSVKGRFTISRDYAKNTVYLQMNSLKPEDTAVYYCAAYHGPWKWTTRYGYWGQGTQVTVSS,low polyreactivity
16,QVHLVESGGGLVQAGGCLRLSCAASGSIFSVHAMGWYRQAPVKERELVAAISGDGDSTYYADSVKGRFTISRDNAKNTVYLQMNSLKPEDTAVYYCAVEPNVYFSVFVLFPSDYWGQGSQVTVSS,low polyreactivity
17,QVQLVESGGGLVQAGGSLRLSCAASGSTFSGNVMGWYRQAPGKERALVAAIRRSSGSTYYADSVKGRFTISRDNAKNTVYLQMNSLKPEDTAVYYCATDVTKIRQGDYYYWGQGTQVTVSS,high polyreactivity
18,QGQLVESGGGLVQAGGSLRLSCPASGNTFKYYAMGWYRQAPGKEWELVAAISYSGGSTYYADSVKGRFTISRDNAKNTVYLQMNSLKPEDTAVYYCAADPTNSYLEYDEWGQGTQVTVSS,low polyreactivity
19,QVQLVESGGGLVQAGGSLRLSCAASGFTFFDYVMGWYRQAPGKERELVAAISSGGSTYYADSVKGRFTISRDNAKNTVYLQMNSLKPEDTAVYYCATDNGYPDDATDGYYSLYDYWGQGTQVTVSS,low polyreactivity
20,QVQLVESGGGLVQAGGSLRLSCAASGIIFQSYTMGWYRQAPGKERELVAAIDSGGSTYYADSVKGRFTISRDNAKNTVYLQMNSLKPEDTAVYYCAAEPDTYWYTYDYWGQGTQVTVSS,low polyreactivity
